Reference: paper PMC12240809 (2025)
Like-named read-outs stand apart in the source and are kept apart here.

Legend:
Test in all cases: MST
[1] = molecular target: T1, FoTO1 (facilitator of taxane oxidation), fused to N-terminal mTurquoise2 (Taxus media)
[2] = molecular target: T2, FoTO1(ΔC), FoTO1 with the C-terminal α-helix deleted, fused to N-terminal mTurquoise2 (Taxus media)
[3] = molecular target: T1, FoTO1 (facilitator of taxane …); remark: listed apart in the source
[4] = molecular target: T2, FoTO1(ΔC), FoTO1 with the C-terminal …; remark: listed apart in the source

Kd [1] [nM]	Kd [2] [µM]	Kd [3] [nM]	Kd [4] [µM]	Binder
610	> 10	–	–	taxadiene synthase 2 (TDS2), soluble portion, 60 N-terminal amino acids removed (enzyme, RED-tris-NTA dye on the His tag (NanoTemper His-Tag labelling kit)) SGSPTKLATENANAVAESNLIPRLSANYHGDLWHHGVIQTLQTPYQESSSYQERAEELIVKIKDMFKAVEEGAISPSAYDTAWVARVPDGSEKPRFPQALNWLLHNQLQDGSWGLESHFMLSDRLLSTLNSVISLLVWKTGQQQVEQGTLFITENLKLLEGEDELPPDFEIIFPALLQKAKALGMSLPDHDLPFIKSLSVAREARLASYTDNNIPASMLNALEGLEEVIDWDKIMRFQMPCLYSIDLLERLSLVDNIEHLGIGRHFKQEIKVALDYVYRYWSERGIGLGRDSLIPDLNTTALGLRTLRAHGYNVSSEVLNNFKDENGRFFSSLGQTHVELRSMVNLLRASDLAFPDEPLMDDAKIFAEAYLRDALATRISTNTKLFKEIDYAVEYPWHMSIPRLEARSYIDVYDDDYTWQNKTLYRMSNLSNAYCLELAKLDFNIVQSLHQEELKLLTRWWKESGMADINFTRHRVAEVYFSSATFEPEYSSTRIAFTKIGCLQVLFDDMADIFATLDELRDFTEGVKRWDTSLIHKLPDCMQTCFRVWFNLMEEVNNDVSNVQGRDMLNHIRKPWELYFNCYVQEREWLDAGYIPTLEEYLKTYSISVGLGPCTLQPILLMGDIVKDDVVEKVHYPSNLFELVSLSWRLTNDTKTYQAEKARGQQASGIACYMKDNPGSTEEDAIKYICGVVDRALKEACFEYFKPADDVPMSCKSFIFNLRLCVQIFYKFIDGYGIANEEIKDYIRKVYIEPIQV
–	–	470	> 10	taxadiene 5α-hydroxylase (T5αH), soluble portion, 47 N-terminal amino acids removed (enzyme, RED-tris-NTA dye on the His tag (NanoTemper His-Tag labelling kit)) SSLKLPPGKLGIPFIGESFIFLRALRSNSLEQFFDERVKKFGLVFKTSLIGHPTVVLCGPAGNRLILSNEEKLVQMSWPAQFMKLMGENSVATRRGEDHIVMRSALAGFFGPGALQSYIGKMNTEIQSHINEKWKGKDEVNVLPLVRELVFNISAILFFNIYDKQEQDRLHKLLETILVGSFALPIDLPGFGFHRALQGRAKLNKIMLSLIKKRKEDLQSGSATATQDLLSVLLTFRDDKGTPLTNDEILDNFSSLLHASYDTTTSPMALIFKLLSSNPECYQKVVQEQLEILSNKEEGEEITWKDLKAMKYTWQVAQETLRMFPPVFGTFRKAITDIQYDGYTIPKGWKLLWTTYSTHPKDLYFNEPEKFMPSRFDQEGKHVAPYTFLPFGGGQRSCVGWEFSKMEILLFVHHFVKTFSSYTPVDPDEKISGDPLPPLPSKGFSIKLFPRP
